Data as given in PMC10987521, “An all-in-one tetrazine reagent for cysteine-selective labeling and bioorthogonal activable prodrug construction” (Nature Communications, 2024).

Legend:
B16F10 cells [1] = experiment: Cell uptake by fluorescence imaging, B16F10; format: cell-based, Mouse; settings: B16F10 pre-treated with 50-fold excess of unmodified RGD, 10 μM, 2 h
Method: B16F10 cells were cultured for 48 h. […]
12.1 Calculation of the fluorescence coefficient (F c)
The Fc was the radio calculated
12.2 Uptake calculation of the B16F10 cells […]
deviation were analyzed using Origin Pro 2015.
B16F10 cells, characterized by α vβ3
Following the incubation period, the
Subsequently, the cells were trypsinized and underwent three PBS rinses.
12 .4 Cell uptake analysis by fluorescence imaging

[2] = Accumulation of RGD-Dox at various time points in tumor tissues; format: in vivo, mice; settings: for tissue level at time molar at 0.5 h / tissue level at time molar at 1 h / tissue level at time molar at 2 h / tissue level at time molar at 4 h / tissue level at time molar at 6 h: BALB/c nude, mouse, tumor tissue, iv, 3.67 umol⸱/kg
Method: 13. In vivo anticancer efficacy
13.1 The accumulation of RGD-Dox at various time points in tumor tissues When the tumor volume reached approximately 400 mm3, five mice in each group received an i.v. injection of 3.67 μmol⸱kg-1 RGD-Dox. After various time intervals, the mice were sacrificed, and tumor tissues were dissected. About 0.5 to 1 g of tissue was ground into a homogenate, and proteins were precipitated by the adding two volumes of acetonitrile (1 mL). After centrifugation, the supernatant was removed, concentrated to 100 µL, and 20 µL was used for HPLC–MS analysis. The RGD-Dox concentration in the sample was determined from a standard curve of the peak area of the characteristic absorption of RGD-Dox at 520 nm. […]

B16F10 cells [3] = experiment: Cellular uptake of RGD-Dox over various time intervals using flow cytometry; format: cell-based, Mouse

COc1cccc2c1C(=O)c1c(O)c3c(c(O)c1C2=O)C[C@@](O)(C(=O)CO)C[C@@H]3O[C@H]1C[C@H](NC(=O)OCc2nnc(CCSC[C@@H]3NC(=O)[C@@H](Cc4ccc(O)cc4)NC(=O)[C@H](CC(=O)O)NC(=O)CNC(=O)[C@H](CCCNC(=N)N)NC3=O)nn2)[C@H](O)[C@H](C)O1 [RGD-Dox]
cellular fluorescence (uptake) after blocking with unmodified RGD (B16F10 cells [1]): negligible fluorescence | accumulation at the tumor tissue over time ([2]; 3.67 μmol·kg^−1 i.v., 0-6 hours, HPLC–MS 520 nm, n = 5): continuous increase in the accumulation of RGD-Dox at the tumor site within the first 0-2 hours, followed by a gradual decrease | accumulation of RGD-Dox in tumor tissues ([2]; 6 h, Data 3): 0.09596 nmol/g | tissue level at time molar at 0.5 h ([2]; Data 1): 0.253 nmol/g | tissue level at time molar at 0.5 h ([2]; Data 2): 0.122 nmol/g | tissue level at time molar at 0.5 h ([2]; Data 3): 0.145 nmol/g | tissue level at time molar at 0.5 h ([2]; Data 4): 0.161 nmol/g | tissue level at time molar at 0.5 h ([2]; Data 5): 0.185 nmol/g | tissue level at time molar at 1 h ([2]; Data 1): 0.311 nmol/g | tissue level at time molar at 1 h ([2]; Data 2): 0.321 nmol/g | tissue level at time molar at 1 h ([2]; Data 3): 0.226 nmol/g | tissue level at time molar at 1 h ([2]; Data 4): 0.407 nmol/g | tissue level at time molar at 1 h ([2]; Data 5): 0.29 nmol/g | tissue level at time molar at 2 h ([2]; Data 1): 0.249 nmol/g | tissue level at time molar at 2 h ([2]; Data 2): 0.239 nmol/g | tissue level at time molar at 2 h ([2]; Data 3): 0.408 nmol/g | tissue level at time molar at 2 h ([2]; Data 4): 0.321 nmol/g | tissue level at time molar at 2 h ([2]; Data 5): 0.3 nmol/g | tissue level at time molar at 4 h ([2]; Data 1): 0.296 nmol/g | tissue level at time molar at 4 h ([2]; Data 2): 0.245 nmol/g | tissue level at time molar at 4 h ([2]; Data 3): 0.274 nmol/g | tissue level at time molar at 4 h ([2]; Data 4): 0.16 nmol/g | tissue level at time molar at 4 h ([2]; Data 5): 0.217 nmol/g | tissue level at time molar at 6 h ([2]; 6 h, Data 1): 0.0949 nmol/g | tissue level at time molar at 6 h ([2]; 6 h, Data 2): 0.0855 nmol/g | tissue level at time molar at 6 h ([2]; 6 h, Data 4): 0.0867 nmol/g | tissue level at time molar at 6 h ([2]; 6 h, Data 5): 0.129 nmol/g | cellular uptake of RGD-Dox (flow cytometry) (B16F10 cells [3]; 0.5 h, Data 2): 4811 | cellular uptake of RGD-Dox (flow cytometry) (B16F10 cells [3]; 1 h, Data 1): 7075 | cellular uptake of RGD-Dox (flow cytometry) (B16F10 cells [3]; 1 h, Data 2): 6214 | cellular uptake of RGD-Dox (flow cytometry) (B16F10 cells [3]; 2 h, Data 2): 11247 | cellular uptake of RGD-Dox (flow cytometry) (B16F10 cells [3]; 2 h, Data 3): 9887 | cellular uptake of RGD-Dox (flow cytometry) (B16F10 cells [3]; 3 h, Data 1): 12006 | cellular uptake of RGD-Dox (flow cytometry) (B16F10 cells [3]; 3 h, Data 2): 12578 | cellular uptake of RGD-Dox (flow cytometry) (B16F10 cells [3]; 4 h, Data 2): 13144
